These results are taken from patent US20240239907A1 (EDELWEISS IMMUNE, published 2024).

To fix the notation:
B1: COXs-1B10 (antibody, V domains shown)
VH: QVTLKESGPGILKASQTLSLTCSFSGFSLSTSGMGIGWIRQPSGKGPEWLAHIWWDDEKYYRPSLKSRLTVSKDTSRNQVFLNITSVDTTDSASYYCVQRTPGRFAYWGQGTLVTVST
VL: DIVMTQSPSSLAVSIGQKVIMSCKSSQSLLSSRTQKNYLAWYQQKPGQSPKLLVYFASIRESGVPDRFTGSGSGTDFTLTISTVQAEDLAVYYCQQYFLTPYTFGGGTKLEIK
notes: Mouse antibody
B2: COXs-2D2 (antibody, V domains shown)
VH: EVQLVESGGGLVQPKGSLKLSCTASGFSFDTYAMNWVRQAPGKGLEWIARIRSKSKNYATYYADSVKDRFTISRDDSANILYLQMNNLKTEDTAIYYCLRQGSFDYWGQGTTLTVSS
VL: DVVLTQTPLSLPVSLGDQASISCRSGQRIVHTDGNTYLYWYLQKPGQSPKLLIYRVSNRFSGVPDRFSGSGSGTDFTLKISRVEAEDMGIYYCFQGTHFPYTFGGGTKLEIK
notes: Mouse-derived
B3: COXs-4H5 (antibody, V domains shown)
VH: EIQLVQSGPELKKPGKTVKISCKASGYTFTTYGMSWVKQAPGKALKWMGWINTYSGVPTYADDFKGRFAFSLETSASTAYLQINNLKNEDTATYFCAIRRLSITLHGMDYWGQGTSVTVS
VL: DVVMTQSPLSLPVSLGDQASIYCRSSQRIVHSDGNTYLYWYLQRPGQSPKLLIYRVSNRFSGVPDRFSGSGSGTDFTLKISRVEAEDMGIYYCFQGTHFPYTFGGGTKLEIK
notes: Mouse-derived; tested at the screening stage
B4: COXs-11E5 (antibody, V domains shown)
VH: EVQLVESGGGLVQPKGSLKLSCTASGFSFDTYAMNWVRQAPGKGLEWVARIRSKSKNYATYYADSVKDRFTVSRDDSANILYLQMNNLKTEDTAIYYCLRQGSFDYWGQGTTLTVSS
VL: DVVMTQTPLSLPVSLGDQASISCRSSQRIVHTDGNTYLYWYLQKPGQSPKLLIYRVSNRFSGVPDRFSGSGSGTDFILKISRVEAEDMGIYYCFQGTHFPYTFGGGTKLEIK
notes: as for B3
B5: COXs-2D4 (antibody, V domains shown)
VH: EVHLVESGGGLVQPKGSLKLSCTASGFSFDTYAMNWVRQAPGKGLEWIARIRSKSKNSATYYADSVKDRFTISRDDSANILYLQMNNLKTEDTAIYYCLRQGSFDYWGQGTTLTVSS
VL: DVVMTQTPLSLPVSLGDQASISCRSSQRIVHTDGNTYLYWYLQKPGQSPKLLIYRVSNRFSGVPDRFSGSGSGTDFTLKITRVEAEDMGIYYCFQGTHFPYTFGGGTKLEIK
notes: as for B3
B6: COXs-12E7 (antibody, V domains shown)
VH: EVHLVESGGGLVQPKGSLKLSCKASGFSFDTYAMNWVRQAPGKGLEWVARIRSKSKSYATYYADSVKDRFTISRDDSANILYLQMNNLKTEDTAIYYCLRQGSFDYWGQGTTLTVSS
VL: DVVMTQTPLSLPVSLGDQASIYCRSSQRIVHSDGNTYLYWYLQRPGQSPKLLIYRVSNRFSGVPDRFSGSGSGTDFTLKISRVEAEDMGIYYCFQGTHFPYTFGGGTKLEIK
notes: as for B3
B7: COXs-9D6 (antibody, V domains shown)
VH: EVHLVESGGGLVQPKGSLKLSCTASGFSFDTYAMNWVRQAPGKGLEWVARIRSKSKNYATYYADSVTDRFTISRDDSANILYLQMNNLKTEDTAIYYCLSQGSFDYWGQGTTLTVSS
VL: DVVMTQTPLSLPVSLGDQASISCRSSQRIVHTDGNTYLYWYLQKPGQSPKLLIYRVSNRFSGVPDRFSGSGSGTDFILKISRVEAEDMGIYYCFQGTHFPYTFGGGTKLEIK
notes: as for B3
B8: Beacon1-G12 (antibody, V domains shown)
VH: EIQLVQSGPELKKPGKTVKISCKASGYTFTTYGMSWVKQAPGKALKWMGWINTYSGVPTYADDFKGRFAFSLETSASTAYLQINNLKNEDTATYFCAIRRLSITLHGMDYWGQGTSVTVS
VL: DIQMTQSPASLSVSVGETVTITCRASENIYSNLAWYQQKQGKSPQLLVYGATNLADGVPSRFSGSGSGTQYSLKINSLQSEDFGSYYCQHFWGTPWTFGGGTKLEIK
notes: Mouse-derived
B9: CNGs-1B7 (antibody, V domains shown)
VH: EVKLEESGGGLVRPGGSMKLSCVASGFTFSDYWMNWVRQSPEKGLEWLAQIRLNSGNYAARYAESVKGRFTISRDDSKNSVYLQMINLRAEDTGIYFCTSNAWLANWGQGTLVTVSA
VL: DIVMTQTAPSVPVTPGESVSISCRSSKSLLHSNGNTYLYWFLQRPGQSPQRLIYSVSNLASGVPDRFSGRGSGTDFTLTISRVEAEDVGVYYCMQSLEYPYTFGGGTKLEIK
notes: Mouse-derived
B10: COXs-7A7 (antibody, V domains shown)
VH: EVQLMESGGGLVKPGGSRKLSCAASGFTFSDYGMHWVRQAPEKGLEWIAYINSGSSTIHYADSVKGRFTISRDNAKNTLFLQMTSLRSEDTAMYYCVRPGFAYWGQGTLITVSA
VL: DIVMTQTPLTLSTTVGQSAFISCRSSQSLLHRNGNTYLNWFLQRPGQSPQLLVYEIFERKSGVPDRFSGSGSGTDFTLKISRVEAEDLGVYYCMQATYEPLTFGAGTKLELK
notes: as for B3
B11: COXs-7E6 (antibody, V domains shown)
VH: EVQLMESGGGLVKPGGSRKLSCAASGFTFSDHGMHWVRQAPEKGLEWIAYINSGSSTIHYADSVKGRFTISRDNAKNTLFLHMTSLRSEDTAMYYCVRPGFAYWGQGTLITVSA
VL: DIVMTQTPLTLSITVGQSAFISCRSSQSLLHRNGNTYLNWFLQRPGQSPQLLVYEIFERKSGVPDRFSGSGSGTDFTLKISRVEAEDLGVYYCMQATYEPLTFGAGTKLELK
notes: as for B3
B12: COXs-11H4 (antibody, V domains shown)
VH: EVQLVESGGGLVQPKGSLKLSCAASGFTFNTYAMNWVRQVPGKGLEWIARMRSESKNFATYYADSVKDRFTISRDDSESILYLQMNNLKTEDTGMYYCVRQGNFDVWGTGTTVTVSS
VL: DVVMTQAPLSLSVSLGDQASISCRSGQNIVHTDGNTYLYWSLQKPGQSPNLLIYKVSNRFSGVPDRFSGSGSGTDFTLKINRVEAEDMGVYYCFQLTHVPYTFGGGTKLEIK
notes: as for B3
B13: Beacon2-D5 (antibody, V domains shown)
VH: EVQLVESGGGLVQPKGSLKLSCAASGFTFNTYAMNWVRQAPGKGLEWVARIRSKSNNYATYYADSVKDRFTISRDDSQSMLYLQMNNLKTEDTAMYYCLSHGAFAYWGQGTLVTVSA
VL: not shown
notes: as for B3
B14: CNF-2F8 (antibody, V domains shown)
VH: EVQLVESGGGLVQPKGSLKLSCAASGFSFQTYAMNWVRQAPGKGLEWVARIRSKRNNYATYYADSVKDRFSISRDDSENMLYLQMNNLKTEDTAMYYCLSHGAFAYWGQGTLVTVSA
VL: not shown
notes: as for B3
B15: CNGs-1C1 (antibody, V domains shown)
VH: EVQLVESGGGLVRPKGSLKLSCAASGFSFNAYAMNWVRQAPGKGLEWVARIRSKSNNYATYYADSVKDRFTISRDDSESMLYLQMNNLKTEDTAMYYCLSHGAFAYWGQGTLVTVSA
VL: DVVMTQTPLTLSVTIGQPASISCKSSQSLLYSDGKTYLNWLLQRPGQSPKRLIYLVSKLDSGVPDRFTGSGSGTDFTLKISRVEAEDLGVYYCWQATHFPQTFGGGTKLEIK
notes: as for B3
B16: CNE-6H7-G7 (antibody, V domains shown)
VH: EVQLVESGGGLVQPKGSLKLSCAASGFSFNTYAMNWVRQAPGKGLEWVARIRSKSNNYGTYYADSVKDRFTISRDDSESMLYLKMNNLKTEDTAMYYCLSHGSSAYWGQGTLVTVSA
VL: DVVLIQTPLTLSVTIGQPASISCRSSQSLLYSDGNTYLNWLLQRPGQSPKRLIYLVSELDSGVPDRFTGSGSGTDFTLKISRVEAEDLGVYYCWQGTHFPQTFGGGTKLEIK
notes: as for B3
B17: CNE-6E10 (antibody, V domains shown)
VH: EVQLVESGGGLVQPKGSLKLSCAASGFSFNTYAMNWVRQAPGKGLEWVARIRSKTNSYETYYADSVKDRFTISRDDSESMLYLQMNNLKTEDTAVYYCLSHGAFAYWGQGTLVTVSA
VL: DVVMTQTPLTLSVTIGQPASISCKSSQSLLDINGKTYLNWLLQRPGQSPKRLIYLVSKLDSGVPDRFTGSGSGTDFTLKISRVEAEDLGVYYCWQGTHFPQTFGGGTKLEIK
notes: Mouse-derived

T1 sequence (O00574 whole entry): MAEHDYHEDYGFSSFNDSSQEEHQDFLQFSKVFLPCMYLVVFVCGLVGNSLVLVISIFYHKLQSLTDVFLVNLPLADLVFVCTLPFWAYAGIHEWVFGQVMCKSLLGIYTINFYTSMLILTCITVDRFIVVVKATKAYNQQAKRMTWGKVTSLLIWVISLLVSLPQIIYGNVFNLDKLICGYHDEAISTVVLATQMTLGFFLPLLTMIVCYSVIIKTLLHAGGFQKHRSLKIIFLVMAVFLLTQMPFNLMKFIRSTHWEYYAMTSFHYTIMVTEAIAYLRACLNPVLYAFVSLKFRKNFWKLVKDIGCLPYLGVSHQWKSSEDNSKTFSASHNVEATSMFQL

The assay addresses T1, human CXCR6 (human, UniProt O00574 1-342).
T1 construct: also called hu-CXCR6; wild type human CXCR6
The experiment in a line: screening on cells overexpressing CXCR6, one single concentration, yes/no.
For B1, the binding result is reported as “binds”.

Consider B2, for which the binding result is “binds”.

B3: the binding result was “binds”.

For B4, the binding result is “binds”.

Turning to B5, the binding result is given as “binds”.

Consider B6, for which the binding result is recorded as “binds”.

As for B7, the binding result is “binds”.

Take B8: the binding result is given as “binds”.

With B9, the binding result is listed as “binds”.

As to B10, the binding result is given as “binds”.

Consider B11, for which the binding result is recorded as “binds”.

Take B12: the binding result is reported as “binds”.

Regarding B13, the binding result is listed as “binds”.

In the case of B14, the binding result was “binds”.

For the molecule B15, the binding result was “binds”.

For the molecule B16, the binding result was “binds”.

B17: the binding result was “binds”.
